Measurements from patent publication US20150023979A1 (VALDOSPAN, published 2015).

T1: HPV18 E7 protein, recombinant (His-TEV-E7 fusion from E. coli) (Human Papilloma Virus type 18 (HPV18), UniProt P06788 1-105, CKII phosphorylation of the consensus site serines in the antigen preparation of Example 2; biotin on primary amines in the SPR assay)
T1 construct: mature; also called VE7_HPV18; not shown: N-terminal 6x Histidine tag and TEV cleavage site of the vector
T1 sequence: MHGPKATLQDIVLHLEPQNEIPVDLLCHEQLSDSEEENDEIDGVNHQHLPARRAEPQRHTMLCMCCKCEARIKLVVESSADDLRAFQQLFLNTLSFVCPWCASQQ

T2: HPV52 E7 protein, recombinant (His-TEV-E7 fusion from E. coli) (Human Papilloma Virus type 52 (HPV52), UniProt P36831 1-99, CKII phosphorylation of the consensus site serines in the antigen preparation of Example 2)
T2 construct: mature; also called VE7_HPV52; not shown: N-terminal 6x Histidine tag and TEV cleavage site of the vector
T2 sequence: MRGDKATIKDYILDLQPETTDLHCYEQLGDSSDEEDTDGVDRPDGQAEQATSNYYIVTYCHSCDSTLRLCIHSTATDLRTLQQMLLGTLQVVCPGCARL

T3: HPV31 E7 protein, recombinant (His-TEV-E7 fusion from E. coli) (Human Papilloma Virus type 31 (HPV31), UniProt P17387 1-98, CKII phosphorylation of the consensus site serines in the antigen preparation of Example 2)
T3 construct: mature; also called VE7_HPV31; not shown: N-terminal 6x Histidine tag and TEV cleavage site of the vector
T3 sequence: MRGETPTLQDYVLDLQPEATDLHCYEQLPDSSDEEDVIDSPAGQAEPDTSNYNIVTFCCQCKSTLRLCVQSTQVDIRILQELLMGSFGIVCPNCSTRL

T4: HPV16 E7 protein, recombinant (His-TEV-E7 fusion from E. coli) (Human Papilloma Virus type 16 (HPV16), UniProt P03129 1-98, CKII phosphoserines at E7 S31 and S32 (chain 1 pos 49 and 50) in the antigen preparation of Example 2, written S; biotin on primary amines (Sulfo-NHS-LC Biotin) in the SPR assay.)
T4 construct: also called VE7_HPV16
T4 sequence: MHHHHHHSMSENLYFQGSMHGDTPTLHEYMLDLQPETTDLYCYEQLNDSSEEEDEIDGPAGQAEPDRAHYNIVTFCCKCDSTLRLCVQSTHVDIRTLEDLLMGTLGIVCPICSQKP

T5: HPV35 E7 protein, recombinant (His-TEV-E7 fusion from E. coli) (Human Papilloma Virus type 35 (HPV35), UniProt P27230 1-99, CKII phosphorylation of the consensus site serines in the antigen preparation of Example 2)
T5 construct: mature; also called VE7_HPV35; not shown: N-terminal 6x Histidine tag and TEV cleavage site of the vector
T5 sequence: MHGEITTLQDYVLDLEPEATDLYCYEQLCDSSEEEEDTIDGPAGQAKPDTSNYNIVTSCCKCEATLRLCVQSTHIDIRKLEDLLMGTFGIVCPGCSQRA

T6: HPV33 E7 protein, recombinant (His-TEV-E7 fusion from E. coli) (Human Papilloma Virus type 33 (HPV33), UniProt P06429 1-97, CKII phosphorylation of the consensus site serines in the antigen preparation of Example 2; biotin on primary amines in the SPR assay)
T6 construct: mature; also called VE7_HPV33; not shown: N-terminal 6x Histidine tag and TEV cleavage site of the vector
T6 sequence: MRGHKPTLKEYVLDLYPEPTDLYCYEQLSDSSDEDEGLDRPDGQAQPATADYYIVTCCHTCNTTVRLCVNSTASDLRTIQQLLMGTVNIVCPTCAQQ

T7: HPV58 E7 protein, recombinant (His-TEV-E7 fusion from E. coli) (Human Papilloma Virus type 58 (HPV58), UniProt P26557 1-98, CKII phosphorylation of the consensus site serines in the antigen preparation of Example 2)
T7 construct: mature; also called VE7_HPV58; not shown: N-terminal 6x Histidine tag and TEV cleavage site of the vector
T7 sequence: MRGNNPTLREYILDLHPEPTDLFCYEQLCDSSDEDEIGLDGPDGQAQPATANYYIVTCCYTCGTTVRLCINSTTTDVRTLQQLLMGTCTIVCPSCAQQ

T8: HPV51 E7 protein, recombinant (His-TEV-E7 fusion from E. coli) (Human Papilloma Virus type 51 (HPV51), UniProt P26558 1-101, CKII phosphorylation of the consensus site serines in the antigen preparation of Example 2)
T8 construct: mature; also called VE7_HPV51; not shown: N-terminal 6x Histidine tag and TEV cleavage site of the vector
T8 sequence: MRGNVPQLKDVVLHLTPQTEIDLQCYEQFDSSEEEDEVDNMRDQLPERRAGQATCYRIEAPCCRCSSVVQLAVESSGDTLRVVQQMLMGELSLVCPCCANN

B1: ACAB161 (antibody, IgG2a, V domains shown)
VH: EVMLVESGGGLVKPGGSLKLSCAASGFTFSRYTMSWVRQTPEKRLEWVATISSGGTNTNYTDSVKGRFTISRDNAKNNLYLQMSSLRSEDTALYYCTRGVRRGDGYAMDYWGQGTSVTVSS
VL: DIVLTQAAPSVPVTPGESVSISCRSTKSLLHSNGNTYLYWFLQRPGQSPQALIYRTSNLASGVPDRFSGSGSGTAFTLRISRVEAEDVGVYYCMQHLEYPLTFGAGTKLELKR
notes: the printed entries run on into the first residues of the constant domains; also called HPV16E7 IgG2a antibody ACAB161
B2: ACAB164 (antibody, V domains shown)
VH: EVQLQQSGLALVQPGASVKISCRTSGYTFTEYTLHWVKQSHGKSLEWIGGINPNNGSPKYNQKFKGKATLTVDKSSSTAYMELRSLTSEDSAVYYCARLDINSFFDYWGQGTTLTVSS
VL: DVVMTQSPLSLPVSLGDQASISCRSSQSLVHSNGNTYLQWYLQKPGQSPKLLIYKLSNRFSGVPDRFSGSGSGTDFTLKISRVEAEDLGVYSCSQTTHVPPTFGGGTKLEIKR
notes: the printed entries run on into the first residues of the constant domains; also called HPV16E7 IgG2a antibody ACAB164
B3: ACAB452 (antibody, IgG1, V domains shown)
VH: DVQLQESGPGLVKPSQSLSLTCTVTGYSITSDYAWNWIRQFPGNKLEWVGYITYSGSTNYNPSLKSRISITRDTSKNQFFLQFNSVTSEDTATYFCARSWFAYWGQGTLVTVSS
VL: DIVMTQTPLSLPVSLGDQASISCRSSQSLVHSNGNTYLHWFLQKPGQSPKLLIYKVSNRFSGVPDRFSGSGSGTDFTLKISRVEAEDLGVYFCLQSAHVPLTFGAGTKLELTR
notes: also called HPV45E7 IgG1 antibody ACAB452

Key:
[1] = target: T1, HPV18 E7 protein, recombinant …; assay: ELISA and dot-blot, semiquantitative crossreactivity (+ weak interaction)
Procedure: (§1) Using ELISA and dot-blot techniques semiquantitative crossreactivities of the isolated mAbs was analysed. For this various mAbs were tested against the accepted high risk species.

[2] = target: T2, HPV52 E7 protein, recombinant …; assay: ELISA and dot-blot, semiquantitative crossreactivity (++ strong positive)
Procedure: as §1

[3] = target: T3, HPV31 E7 protein, recombinant …; assay: as above
Procedure: as §1

[4] = target: T4, HPV16 E7 protein, recombinant …; assay: SPR (BIAcore X100), biotin-E7 on streptavidin SA chip, antibody as analyte, bivalent analyte fit, 25 C
[5] = target: T5, HPV35 E7 protein, recombinant …; assay: ELISA and dot-blot, semiquantitative crossreactivity (++ strong positive)
Procedure: as §1

[6] = target: T1, HPV18 E7 protein, recombinant …; assay: ELISA and dot-blot, semiquantitative crossreactivity
Procedure: as §1

[7] = target: T6, HPV33 E7 protein, recombinant …; assay: ELISA and dot-blot, semiquantitative crossreactivity (+ weak interaction)
Procedure: as §1

[8] = target: T7, HPV58 E7 protein, recombinant …; assay: ELISA, HPV58E7 immobilised on polystyrene plates in 3-fold dilution steps, detected with ACAB452
[9] = target: T2, HPV52 E7 protein, recombinant …; assay: ELISA, HPV52E7 immobilised on polystyrene plates in 3-fold dilution steps, detected with ACAB452
[10] = target: T8, HPV51 E7 protein, recombinant …; assay: ELISA and dot-blot, semiquantitative crossreactivity (++ strong positive)
Procedure: as §1

Binder | binding result [1] | binding result [2] | binding result [3] | Kd [4] [nM] | kon [4] [M⁻¹ s⁻¹] | binding result [5] | binding result [6] | binding result [7] | binding result [8] | binding result [9] | binding result [10]
B1 | binds | binds | binds | 3.38 | 58400 | – | – | – | – | – | –
B2 | – | binds | binds | 0.052 | 261000 | binds | no binding | – | – | – | –
B3 | – | – | – | – | – | – | – | binds | no binding (tested: 800 nM immobilised antigen (per legend)) | no binding (tested: 800 nM immobilised antigen (per legend)) | binds
